This passage reports Kd results from publication PMC7344962 (Antibodies, 2020).

Positions count from the first letter of the chain named. Where “and” joins values, the source holds several entries; their conditions need not be identical. Identical values can stand only once.

For orientation: Kd means the free concentration of one partner at which half of the binding sites on the other are occupied at equilibrium, for simple one-to-one binding. Read a low Kd as tighter binding.

B1: scFv S1A0 (scFv, V domains shown)
VH: QVQLQQSGAELVRPGVSVKISCKGSGYTFTDYGMHWVKQSHAKSLEWIGIISTYSGDASYNQKFKGKATMTVDKSSSTAYMELARLTSEDSAIYYCARSSTWYYFDYWGQGTTLTVSS
VL: DIQVTQTTSSLSASLGDRVTISCRASQDISNYLNWYQQKPDGTVKLLIYYTSRLHSGVPSRFSGSGSGTDYSLTISNLEQEDIATYFCQQGNTLPYTFGGGTKLEIK
notes: VH A: wild-type heavy variable domain of the murine monoclonal IgG2a antibody 4F11E12 (anti-SAG1); the antibody is also in PDB 1YNT; (Gly4Ser)3 peptide linker; VL 0: wild-type light variable domain of the murine monoclonal IgG2a antibody 4F11E12 (anti-SAG1); VH-linker-VL orientation; also called wild-type scFv; WT scFv; source: E. coli HB2151 periplasm, purified (HisTrap HP); not shown: …
B2: scFv S1C4 (scFv, V domains shown)
VH: B1 VH with S40R, H41P, A42G, K43H, S44G
VL: B1 VL with V4M, T8P, Q80P, F87Y
notes: VH C: as VH A of m1 with only the cluster II substitutions (C-C' loop); numbers count on: IMGT numbering; (Gly4Ser)3 peptide linker; VL 4: as VL 0 of m1 with the stated changes; VH-linker-VL orientation; source: E. coli HB2151 periplasm; periplasmic extract loaded on HiScreen Capto L, purified; not shown: Gly3AlaSerHis6, C-terminal, kept
B3: scFv S1B4 (scFv, V domains shown)
VH: B1 VH with V16T, G24A, E82Q, A84S, R85S, I93V, T113L, L114V, S118A
VL: B1 VL with V4M, T8P, Q80P, F87Y
notes: VH B: as VH A of m1 with only the cluster III substitutions; (Gly4Ser)3 peptide linker; VL 4: as VL 0 of m1 with the stated changes; numbers count on: IMGT numbering; VH-linker-VL orientation; source: E. coli HB2151 periplasm; periplasmic extract loaded on HiScreen Capto L, purified; not shown: Gly3AlaSerHis6, C-terminal, kept
B4: scFv S1D4 (scFv, V domains shown)
VH: QVQLQQSGAELVRPGTSVKISCKASGYTFTDYGMHWVKQRPGHGLEWIGIISTYSGDASYNQKFKGKATMTVDKSSSTAYMQLSSLTSEDSAVYYCARSSTWYYFDYWGQGTLVTVSA
VL: B1 VL with V4M, T8P, Q80P, F87Y
notes: VH D: as VH A of m1 with the cluster II and cluster III substitutions (VH Z without cluster I); numbers count on: IMGT numbering; (Gly4Ser)3 peptide linker; VL 4: as VL 0 of m1 with the stated changes; VH-linker-VL orientation; source: E. coli HB2151 periplasm; periplasmic extract loaded on HiScreen Capto L, purified; not shown: Gly3AlaSerHis6, C-terminal, kept
B5: scFv S1A4 (scFv, V domains shown)
VH: B1 VH
VL: B1 VL with V4M, T8P, Q80P, F87Y
notes: VH A: as the VH of m1 (wild-type VH of 4F11E12); (Gly4Ser)3 peptide linker; VL 4: as VL 0 of m1 with the stated changes; numbers count on: IMGT numbering; VH-linker-VL orientation; source: E. coli HB2151 periplasm; periplasmic extract loaded on HiScreen Capto L, purified; not shown: Gly3AlaSerHis6, C-terminal, kept

The target in the assay is T1, major surface antigen 1 (SAG1) of Toxoplasma gondii (Toxoplasma gondii, strain , UniProt P13664).
T1 construct: major surface antigen 1 (SAG1) of Toxoplasma gondii; SAG1 in complex with the parent antibody is in PDB 1YNT (cited); also called antigen SAG1
T1 sequence (P13664 48-336): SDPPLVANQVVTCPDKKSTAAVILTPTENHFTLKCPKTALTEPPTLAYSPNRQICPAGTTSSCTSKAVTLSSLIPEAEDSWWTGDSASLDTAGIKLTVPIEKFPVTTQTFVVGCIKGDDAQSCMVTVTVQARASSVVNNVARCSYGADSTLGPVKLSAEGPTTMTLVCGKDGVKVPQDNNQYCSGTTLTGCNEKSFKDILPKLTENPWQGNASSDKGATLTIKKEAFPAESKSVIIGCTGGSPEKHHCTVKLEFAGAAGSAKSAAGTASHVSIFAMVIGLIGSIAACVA
The assay can be described thus: SPR; SAG1 covalently immobilised (1000 RU, EDC/NHS) on a CM5S chip; T200, 25 °C, HBS-EP+; single cycle kinetics with scFv at 600-200-66-22-7.5 nM, 50 µL/min; Langmuir 1:1 then two-state fitting model, similar Kd values in both. As to conditions: both partners purified. Background: Surface plasmon resonance follows binding to a sensor surface in real time, without labels.
As for B1, the Kd is ~200 nM.

As to B2, the Kd was ~200 nM and < 100 nM.

B3: the Kd is ~200 nM.

As to B4, the Kd was ~200 nM.

B5: the Kd is ~200 nM.
